Results as given in patent publication CN114907476A.

Experiments:
[1] = target: 表达于CHOK1细胞表面的人TIGIT (CHOK1/人TIGIT细胞, 吉满生物 GM-C01116) (human) (UniProt Q495A1); assay: flow cytometry competition, inhibition of Biotinylated-CD155 (0.6μg/ml) binding to CHOK1/human TIGIT cells
[2] = target: Jurkat-hTIGIT-NFAT-CD226细胞上过表达的人TIGIT (human); assay: cell-based or functional assay
[3] = target: 表达于CHOK1细胞表面的人TIGIT (CHOK1/人TIGIT细胞, 吉满生物 GM-C01116) (human) (UniProt Q495A1); assay: flow cytometry on CHOK1/hTIGIT cells
[4] = target: 表达于CHOK1细胞表面的人TIGIT (CHOK1/人TIGIT细胞, 吉满生物 GM-C01116) (human) (UniProt Q495A1); assay: flow cytometry competition, inhibition of Biotinylated-CD155 (0.6μg/ml) binding to CHOK1/hTIGIT cells

Sequence of UniProt Q495A1 (Q495A1 22-244, one chain of several): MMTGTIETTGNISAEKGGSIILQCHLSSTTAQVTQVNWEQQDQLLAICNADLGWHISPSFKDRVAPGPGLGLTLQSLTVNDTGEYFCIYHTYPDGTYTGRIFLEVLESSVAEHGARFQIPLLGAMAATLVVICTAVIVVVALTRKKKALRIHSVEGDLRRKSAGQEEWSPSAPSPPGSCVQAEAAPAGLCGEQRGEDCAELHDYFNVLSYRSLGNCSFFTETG

IgG对照 (antibody)
最大抑制 [1]: 3.03% | Max RLU [2]: 7110 RLU | 最大RLU [2]: 6320 RLU | 最大MFI [3]: 229 MFI | 最大抑制 [4]: 6.36%
